# Experimental data from the DeepSol protein solubility set.
# Assay: soluble on expression in E. coli; label from the status in PepcDB or PDB records
row,Sequence,soluble on expression in E. coli
1,MSLTKVLVIDPKIAGMSGDMFVSSLLALTNSYDLMDELILELEKLNNCNSFKVSVMDEKVNGISAKQLKIEIDEERIKNPDELKEIIINTSKNLMSEKGVKICENIINDLIEAEKKLHGDHFHLHEISSLDTVFDIVLPVLILEKNGFLDGKIYSTPPSLGNGRISMDHGIIPSPAPSTLEILCKHEIKCSKVDSEFELLTPTGAAILSNVTDEFTDSYPEIVLLKTAYGAGTKRMEHVPNVLRLVEGKTDEKIIEKTVILETNIDDISSEILAYAVERLLNEGAPDVFITPVFGKKNRPSSMISVICPYHVHEKFAKILIEETGTLGVRINHYDKIRAKRRMEKLTLDINGVNFGFDVKISDLNGEIVNIKPEFEDLKKIAKNLNIPLRDVLRHANNKIKEIYGFEGHHHHHH,soluble
2,MRKLISTIIVSTLLIGGCSTVHKEAKHSSQSIPEEVPASQYKGQGFQPVAEKSAIAHAKKYREEYEKLGEQFFKDNFSLNVKATNVVGSGDGVEVYVHCDDHDIVFNASIPFDKEAIHEEGSMRSNDNGDTMSNMVGTVLSGFEYKAQKEKYDNLTKFFKDNEEKYQYTGFTKEAIHKTQNVGYQNEYYYLAGNVTNINNYRKYYEPLIKKDSKNFKEGMKKANEATNFKAKIEVVSTLFSTKSDFTKNNSKKDLLFLSDDLYHYKEKPENTNITLQLSEPKINSTRAFYDANNPLEYGVHKHELEHHHHHH,soluble
3,MGHHHHHHSHMRCQESMSAVLTAEQALKLVGEMFVYHMPFNRALGLELERYEKAFAQLAFNNQPMMVGNWAQSILHGGVIASALDVAAGLVCVGSTLTRHETISEDELRQRLSRMGTIDLRVDYLRPGRGNRFTATSSLLRAGNKVAVARVELHNEDQLYIASATATYMVG,not soluble
4,SNAGMKAADFTYVTVHGDNSRMSRLKAQYTMLFFYDPDCSNCRKFEKLFAEIPAFVEMVENGTLRVLAIYPDENREEWATKAVYMPQGWIVGWNKAGDIRTRQLYDIRATPTIYLLDGRKRVILKDTSMEQLIDYLATQAGK,soluble
5,MGSDKIHHHHHHMRNPDIGIDDLTALFIADTPLIDVRAPVEFTQGSLPGAVNLPILNDEERALVGTTYKQQGSEAAIKLGYEMVSGSVKQNRLQQWLDFIHQHPRAILYCFRGGKRSQITQQWLRDTGIDSPLITGGYKRARQFLISTIDRFSEHRKLLVITGPTGSGKTRLIHDISNSHPVLDIEALARHRGSAFGGMSVPQPSQIDFENHLAVNLLKLEQNNLSEPVIVEDESRHTGKVYLPDSFFHHLRNSEIIWVDEPLATRVDNIFEDYILTTPIGQAQRIRQAIPPLASTVETREILRQQARQLFDKYAGALQAISKKLGGDRFQEVSEDLENARSDFENKNEIQSNKIWIEKLVRYYYDPLYLGSLQRRRVNPCFKGSGQAVMDYLQARK,not soluble
6,MTNTAKILNFCRGNFAKQERNVADLDDGYARLSNMLLEAYSGADLTKRQFKVLLAILRKTYGWNKPMDRITDSQLSEITKLPVKRCNEAKLELVRMNIIKQQGGMFGPNKNISEWCIPQNEGKSPKTRDKTSLKLGDCYPSKQGDTKDTITKEKRKDYSSENSGESSDQPENDLSVVKPDAAIQSGSKWGTAEDLTAAEWMFDMVKTIAPSARKPNFAGWANDIRLMRERDGRNHRDMCVLFRWACQDNFWSGNVLSPAKLRDKWTQLEINRNKQQAGVTACKPKLDLTNTDWIYGVDL,not soluble
7,MSLTGVLGFYTLEEGPTLPSSFTSFANNTGQLSSTALFMFRISAANPTTIEKFGEFTDQDVRNLVAIAHRNNVKIMPVVHNLLYRPGGTTLAKNVVKTLVSDPRNRNAFALNLVNLIERYGFDGVNIDIEDVFIEDSDNLSLLYTEISEVLRPRGYFFSASVPSRVSDEPFNPFSDPFNYSVIGRAVDEFVVMLYNEFGWPGSPPGPAVTIGWMERVLRYTMSKMPRDKIMAAVSVFGFDFNLTTGRNTYVTYQSAINLARRYNSEIIFNEERQTPMFTYRDAQGNQHEVWFEDARSLRSKIQLAWELGIKGVALWRLGMEDPNIWPMLRNEVVVRKFEGHHHHHH,soluble
8,PQEVESYVHRIGRTGRAGKEGTAITFITPQEYRRLLQIQKAVKKEIKKEKLPDVKDVIQAKKFRIIDDIGQILIDNDYDKFKKLAKDLLKMEDAENIVASLLKLSYSDVLDESNYNEISPVKMEDTGKTRLFIAMGRKDGMTPK,not soluble
9,MPNLSNRLTLLREKQGWSKAETARRLGLKAPSTYGNWEYGIREPDLDMVTQIATLYDVSVDYLLGQQSIPTYAPSELQGEKDIAKRMIKISEDLRYEDDLNLNGKPLNDSAAHFLADSIDFLYEQAKKLND,not soluble
10,RTNQAGLELIGNAEGCRRDPYMCPAGVWTDGIGNTHGVTPGVRKTDQQIAADWEKNILIAERCINQHFRGKDMPDNAFSAMTSAAFNMGCNSLRTYYSKARGMRVETSIHKWAQKGEWVNMCNHLPDFVNSNGVPLRGLKIRREKERQLCLTGLVNEHHHHHH,soluble
11,SAVPAILQVITESTGLGFAAVARVTEDSWTACAVLDNLGFGLKPGGELELISTICHEIRASHKPVVIDHVAEDELFCAHHTPRRYNFQSYISIPIFLTDGSFFGTICALDPKPAKLTGTPIEAMMVSFARLLALQIEAEENMQRVQ,soluble
12,AVPKIRIAVPSKGRISEPAIRLLENAGVGLKDTVNRKLFSKTQHPQIEVMFSRAADIPEFVADGAADLGITGYDLIVERGSDVEILEDLKYGRASLVLAAPEDSTIRGPEDIPRGAVIATEFPGITENYLREHGIDAEVVELTGSTEIAPFIGVADLITDLSSTGTTLRMNHLRVIDTILESSVKLIANRESYATKSGIIEELRTGIRGVIDAEGKRLVMLNIDRKNLDRVRALMPGMTGPTVSEVLSDNGVVAVHAVVDEKEVFNLINRLKAVGARDILVVPIERIIP,soluble
13,MKCVFVTVGTTSFDDLIACVSAPDSLQKIESLGYNRLILQIGRGTVVPEPFSTESFTLDVYRYKDSLKEDIQKADLVISHAGAGSCLETLEKGKPLVVVINEKLMNNHQLELAKQLHKEGHLFYCTCSTLPGLLQSMDLSTLKCYPPGQPEKFSAFLDKVVGLQK,soluble
14,MATGLGFFKLSFLLSLLSGGSDLLGPDAESGVAQIGKFPPSCNRIECPSYELVHSGNGYEIRRYNNTVWVSTEPIPDISLVDATRTAFFQLFAYIQGKNEYHQKIEMTAPVISQVSPSDGPFCESSFTVSFYVPKKNQPDPAPSENLHIQKWNSRYVAVRQFSGFVSDDSIGEQAAALDSSLKGTAWANAIAKSKEDGGVGSDSAYTVAQYNSPFEFSGRVNEIWLPFELDV,not soluble
15,MSLQMERRGISALPLHYGHPPEYLFKRAVKLSGIMAEIIVDTYGQGELIRRLADPFWFHSLSLVTGFDWNSSGTTVFTLSALKEYLSTRDLGVKVCGGKASAMADMRADLLSSVETGILKEDDKEYVYENARRIAKIDNSLLQDGYDLYMQFVVVSDRGRHAVIQQGMNSEDRMARRYHWLIGNERVDVEGRYGLSADKTSLNVLDLSATESRDNRSAIVASVREGEVWRFRSGAQSTLDNFSLPFLDLSGRVNWKKLRDLYEYGVDDFEKIYMEKGIGKSTLRALSYIAEVIYGPKASFRDPVKFSFAVGGKDGIPKPVNTYDYDRAIEFFSDLIREKDLNVREKETIARSLAHLSQMKTNFYSEGHHHHHH,soluble
16,MGSDKIHHHHHHDETDPILTQKNWDGTATYFQSSDEHGFSMYYKPQVGFVGDPMPFYDPVAKDFKVMYLQDYRPNPEATYHPIFGVATKDGATYESLGELISCGGRDEQDAAIGTGGTIYNPADKLYYTFYTGNKFKPSSDQNAQVVMVATSPDFKTWTKNRTFYLKGDTYGYDKNDFRDPFLFQTEDGVYHMLIATRKNGKGHIAEFTSADLKEWESAGTFMTMMWDRFYECPDVFKMGDWWYLIYSEQASFMRKVQYFKGRTLEDLKATTANDAGIWPDNREGMLDSRAFYAGKTASDGTNRYIWGWCPTRAGNDNGNVGDVEPEWAGNLVAQRLIQHEDGTLTLGVPDAIDRKYTSAQEVKVMAKDGNMIESGKTYTLGEGASVIFNRLKVHNKISFTVKTASNTDRFGISFVRGTDSASWYSIHVNADEGKANFEKDGDDAKYLFDNKFNIPADNEYRVTIYSDQSVCVTYINDQLSFTNRIYQMQKNPWSLCCYKGEITVSDVQVSTY,not soluble
